Laboratory results reported in US20010029293A1.
Values belong to the substance of their own block, whether it stands above or below them.

What was measured:
[1] = target: LFA-1 (CD11a/CD18) on cells (human) (UniProt P20701); experiment: JY cell adhesion to coated shICAM-R, mAb 10 µg/ml
[2] = target: LFA-1 (CD11a/CD18) on cells (human) (UniProt P20701); experiment: cell adhesion to coated shICAM-R, peptide 1-2 mg/ml
[3] = target: LFA-1 (CD11a/CD18) on cells (human) (UniProt P20701); experiment: neutrophil adhesion to coated ICAM-R/Ig, mAb 15 µg/ml

LFA-1 (CD11a/CD18) on cells (human), sequence (P20701 26-1170, chain 1 of 2): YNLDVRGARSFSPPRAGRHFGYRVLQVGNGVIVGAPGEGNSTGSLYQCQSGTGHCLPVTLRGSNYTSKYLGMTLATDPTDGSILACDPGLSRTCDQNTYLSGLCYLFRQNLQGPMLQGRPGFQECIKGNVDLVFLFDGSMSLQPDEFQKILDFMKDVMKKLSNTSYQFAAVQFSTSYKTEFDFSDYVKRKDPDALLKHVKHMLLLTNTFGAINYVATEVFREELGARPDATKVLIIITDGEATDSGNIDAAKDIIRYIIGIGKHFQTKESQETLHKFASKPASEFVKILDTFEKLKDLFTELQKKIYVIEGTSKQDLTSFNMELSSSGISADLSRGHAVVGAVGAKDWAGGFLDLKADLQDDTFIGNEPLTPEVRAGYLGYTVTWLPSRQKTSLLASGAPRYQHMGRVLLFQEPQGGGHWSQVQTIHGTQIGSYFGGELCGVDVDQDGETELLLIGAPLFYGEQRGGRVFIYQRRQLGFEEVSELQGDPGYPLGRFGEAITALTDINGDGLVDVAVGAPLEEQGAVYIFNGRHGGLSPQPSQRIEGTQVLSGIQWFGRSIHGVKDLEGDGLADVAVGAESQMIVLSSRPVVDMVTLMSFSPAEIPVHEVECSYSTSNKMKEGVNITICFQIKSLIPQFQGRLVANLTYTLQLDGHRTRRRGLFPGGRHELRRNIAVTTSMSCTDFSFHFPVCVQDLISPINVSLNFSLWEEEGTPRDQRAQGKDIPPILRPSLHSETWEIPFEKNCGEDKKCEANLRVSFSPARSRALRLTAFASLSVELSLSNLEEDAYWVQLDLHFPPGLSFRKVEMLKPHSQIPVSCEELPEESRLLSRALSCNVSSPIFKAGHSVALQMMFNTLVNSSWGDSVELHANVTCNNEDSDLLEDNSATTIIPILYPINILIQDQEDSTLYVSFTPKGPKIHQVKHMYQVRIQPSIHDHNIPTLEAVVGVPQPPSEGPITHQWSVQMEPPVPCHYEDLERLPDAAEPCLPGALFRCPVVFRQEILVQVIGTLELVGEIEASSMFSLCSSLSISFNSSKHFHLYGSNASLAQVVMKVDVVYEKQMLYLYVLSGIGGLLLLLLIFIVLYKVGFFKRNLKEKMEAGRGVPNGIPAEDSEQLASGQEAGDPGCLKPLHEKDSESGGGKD
LFA-1 (CD11a/CD18) on cells (human), sequence (P05107 23-769, chain 2 of 2, further chain): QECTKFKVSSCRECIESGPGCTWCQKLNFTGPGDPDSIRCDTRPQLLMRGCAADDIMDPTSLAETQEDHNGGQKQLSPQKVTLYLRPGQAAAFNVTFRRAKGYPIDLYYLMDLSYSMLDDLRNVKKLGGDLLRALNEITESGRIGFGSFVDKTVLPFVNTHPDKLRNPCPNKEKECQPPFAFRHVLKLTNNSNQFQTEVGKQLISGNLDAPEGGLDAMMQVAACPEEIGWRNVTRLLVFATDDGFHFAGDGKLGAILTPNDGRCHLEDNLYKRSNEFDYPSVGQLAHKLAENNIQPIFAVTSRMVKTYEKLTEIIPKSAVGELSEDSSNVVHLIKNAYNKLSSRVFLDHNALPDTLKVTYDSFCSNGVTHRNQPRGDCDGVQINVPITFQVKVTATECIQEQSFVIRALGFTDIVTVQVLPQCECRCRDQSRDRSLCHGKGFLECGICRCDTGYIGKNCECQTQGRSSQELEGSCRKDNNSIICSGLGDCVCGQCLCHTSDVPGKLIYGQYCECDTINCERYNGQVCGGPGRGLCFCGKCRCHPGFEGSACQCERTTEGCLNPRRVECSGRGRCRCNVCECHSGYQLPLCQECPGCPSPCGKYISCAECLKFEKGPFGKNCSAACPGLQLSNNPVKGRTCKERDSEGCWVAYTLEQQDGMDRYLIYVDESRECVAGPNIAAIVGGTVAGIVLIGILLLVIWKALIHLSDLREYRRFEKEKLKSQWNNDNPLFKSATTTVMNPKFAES

- Inhibition (%) of CD18-dependent JY cell binding [1]: 100%
Substance: 60.3 (antibody)

- % Inhibition CD18-Dependent Binding (SKW3) [2]: 26%
Substance: ICAM-R peptide 72-76 (NGSQI)

- % inhibition of neutrophil binding to ICAM-R [3]: 50%
Substance: TS1/22 (antibody)
